Results on 62 sequences are retold here after the supplement of paper PMC7877785.

The series is described as follows: self-splicing fitness, log relative to wild type (ln ratio); higher = more splicing; Tetrahymena group I intron in knt gene, E. coli kanamycin selection, DiMSum; sequences stand for … in CUCUCU…GGAGGGAAAAGUUAUCAGGCAUGCACCUGGUAGCUAGUCUUUAAACCAAUAGAUUGCAUCGGUUUAAAAGGCAAGACCGUCAAAUUGCGGGAAAGGGGUCAACAGCCGUUCAGUACCAAGUCUCAGGGGAAACUUUGAGAUGGCCUUGCAAAGGGUAUGGUAAUAAGCUGACGGACAUGGUCCUAACCACGCAGCCAAGUCCUAAGUCAACAGAUCUUCUGUUGAUAUGGAUGCAGUUCACAGACUAAAUGUCGGUCGGGGAAGAUGUAUUCUUCUCAUAAGAUAUAGUCGGACCUCUCCUUAAUGGGAGCUAGCGGAUGAAGUGAUGCAACACUGGAGCCGCUGGGAACUAAUUUGUAUGCGAAAGUAUAUUGAUUAGUUUUGGAGUACUCGUGGUCG
The essentials:
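Colonies from six replicate transformations of E. coli BL21(DE3) were pooled and amplicon-sequenced on an Illumina HiSeq 2500. The library placed an intron with all eight P1ex-region nucleotides randomised inside the knt kanamycin-resistance gene on pET-22b(+), and cells grew overnight at 37°C or 30°C on LB agar with or without 25 μg/mL kanamycin (plus 100 μg/mL carbenicillin, 50 μM IPTG, 0.2% rhamnose). Fitness is the DiMSum error-weighted combination of wild-type-normalised replicate fold changes, kanamycin versus none.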

± gives the uncertainty stated by the source.

With AGGCAGCAAUAUUACGCGGU, the “self-splicing fitness (ln)” value is, setting by setting: (30 °C) -3.61 ± 0.19; (37 °C) -2.98 ± 0.17.

Regarding AGGCAGCAAUAUUACGCUGG, the “self-splicing fitness (ln)” value runs as follows: (30 °C) -3.73 ± 0.22; (37 °C) -1.2 ± 0.17. The matching figures for AGGCAGCAAUAUUACGGACU: -0.344 ± 0.079 and 0.146 ± 0.093. With AGGCAGCAAUAUUACGGCGG, the “self-splicing fitness (ln)” value (30 °C) was -1.62 ± 0.094 and the “self-splicing fitness (ln)” value (37 °C) was -1.11 ± 0.13.

For the sequence AGGCAGCAAUAUUACGGCGU, the “self-splicing fitness (ln)” value is, setting by setting: (30 °C) -0.172 ± 0.063; (37 °C) -0.0953 ± 0.079.

Regarding AGGCAGCAAUAUUACGGGUA, the “self-splicing fitness (ln)” value by setting is: (30 °C) -2.35 ± 0.15; (37 °C) -1.05 ± 0.11.

Consider AGGCAGCAAUAUUACGGUAG, for which the “self-splicing fitness (ln)” value (30 °C) was -3.33 ± 0.25 and the “self-splicing fitness (ln)” value (37 °C) was -2.66 ± 0.29. In the case of AGGCAGCAAUAUUACGGUCG, the “self-splicing fitness (ln)” value by setting is: (30 °C) -0.147 ± 0.079; (37 °C) -0.266 ± 0.1. In the same order, the values of AGGCAGCAAUAUUACGUAAC are -2.03 ± 0.12 and -0.934 ± 0.14. As for AGGCAGCAAUAUUACGUAGU, the “self-splicing fitness (ln)” value is, setting by setting: (30 °C) -3.18 ± 0.12; (37 °C) -1.75 ± 0.11. In the same order, the values of AGGCAGCAAUAUUACGUGUU are -1.85 ± 0.063 and -1.38 ± 0.088. For AGGCAGCAAUAUUACGUUCC, the “self-splicing fitness (ln)” value by setting is: (30 °C) -0.801 ± 0.12; (37 °C) -0.27 ± 0.16. The matching figures for AGGCAGCAAUAUUACGUUUC: -2.17 ± 0.095 and -1.75 ± 0.15. Turning to AGGGAGCAAUAUUACGACUC, the “self-splicing fitness (ln)” value is -1.2 ± 0.48 (30 °C) and -1.92 ± 0.48 (37 °C). As for AGGGAGCAAUAUUACGAUGU, the “self-splicing fitness (ln)” value reads like this: (30 °C) -1.22 ± 0.098; (37 °C) -2.13 ± 0.19. Consider AGGGAGCAAUAUUACGCCAC, for which the “self-splicing fitness (ln)” value (30 °C) was -2.47 ± 0.49.

As for AGGGAGCAAUAUUACGCGAU, the “self-splicing fitness (ln)” value (30 °C) is -2.89 ± 0.29 and the “self-splicing fitness (ln)” value (37 °C) was -1.84 ± 0.47. As to AGGGAGCAAUAUUACGCGGG, the “self-splicing fitness (ln)” value (30 °C) was -1.93 ± 0.2. AGGGAGCAAUAUUACGCGUG: the “self-splicing fitness (ln)” value is, setting by setting: (30 °C) -2.4 ± 0.15; (37 °C) -2.35 ± 0.23. As for AGGGAGCAAUAUUACGCUUG, the “self-splicing fitness (ln)” value (30 °C) is -1.95 ± 0.27. AGGGAGCAAUAUUACGCUUU: the “self-splicing fitness (ln)” value runs as follows: (30 °C) -2.49 ± 0.45; (37 °C) -2.48 ± 0.5. The matching figures for AGGGAGCAAUAUUACGGAAG: -3.61 ± 0.4 and -1.02 ± 0.33. For the sequence AGGGAGCAAUAUUACGGAUA, where the note is “30 °C”, the “self-splicing fitness (ln)” value was -3.15 ± 0.31.

Take AGGGAGCAAUAUUACGGCCG: the “self-splicing fitness (ln)” value was -1.81 ± 0.16 (30 °C) and -1.96 ± 0.16 (37 °C).

Turning to AGGGAGCAAUAUUACGGGGU, the “self-splicing fitness (ln)” value is, setting by setting: (30 °C) -3.27 ± 0.36; (37 °C) -3.01 ± 0.31. Take AGGGAGCAAUAUUACGGUGA: the “self-splicing fitness (ln)” value is -1.8 ± 0.24 (30 °C) and -1.66 ± 0.26 (37 °C). Take AGGGAGCAAUAUUACGGUGG: the “self-splicing fitness (ln)” value reads like this: (30 °C) -3.72 ± 0.27; (37 °C) -3.79 ± 0.36.

With AGGGAGCAAUAUUACGGUUG, the “self-splicing fitness (ln)” value (30 °C) is -2.87 ± 0.19 and the “self-splicing fitness (ln)” value (37 °C) was -2.76 ± 0.36. Take AGGGAGCAAUAUUACGUAAU: for the setting “37 °C”, the “self-splicing fitness (ln)” value is -2.05 ± 0.26.

Take AGGGAGCAAUAUUACGUGUA: the “self-splicing fitness (ln)” value (30 °C) is -3.24 ± 0.35 and the “self-splicing fitness (ln)” value (37 °C) was -3.06 ± 0.31. Turning to AGGGAGCAAUAUUACGUUGC, the “self-splicing fitness (ln)” value (37 °C) was -1.37 ± 0.31. With AGGUAGCAAUAUUACGACUG, the “self-splicing fitness (ln)” value (30 °C) is -0.0476 ± 0.015 and the “self-splicing fitness (ln)” value (37 °C) was -0.0252 ± 0.034.

For AGGUAGCAAUAUUACGAGAA, the “self-splicing fitness (ln)” value (30 °C) is -2.95 ± 0.05 and the “self-splicing fitness (ln)” value (37 °C) is -2.09 ± 0.047. The matching figures for AGGUAGCAAUAUUACGAUCU: -0.913 ± 0.016 and -0.426 ± 0.034. The matching figures for AGGUAGCAAUAUUACGCAGA: -2.681 ± 0.023 and -1.59 ± 0.034. For the sequence AGGUAGCAAUAUUACGCAUC, the “self-splicing fitness (ln)” value (30 °C) was -3.221 ± 0.027 and the “self-splicing fitness (ln)” value (37 °C) is -1.72 ± 0.038. The matching figures for AGGUAGCAAUAUUACGCCAA: -1.19 ± 0.02 and -0.512 ± 0.035. The matching figures for AGGUAGCAAUAUUACGCCAG: -1.22 ± 0.02 and -0.873 ± 0.037. The matching figures for AGGUAGCAAUAUUACGCCGC: -3.58 ± 0.053 and -2.77 ± 0.067. On to AGGUAGCAAUAUUACGCCGG, for which the “self-splicing fitness (ln)” value reads like this: (30 °C) -1.09 ± 0.017; (37 °C) -0.556 ± 0.034. Consider AGGUAGCAAUAUUACGCGAU, for which the “self-splicing fitness (ln)” value is -3.466 ± 0.03 (30 °C) and -2.24 ± 0.039 (37 °C).

For AGGUAGCAAUAUUACGCGCA, the “self-splicing fitness (ln)” value is -0.305 ± 0.016 (30 °C) and 0.00281 ± 0.034 (37 °C).

In the case of AGGUAGCAAUAUUACGCGCU, the “self-splicing fitness (ln)” value reads like this: (30 °C) -1.13 ± 0.017; (37 °C) -0.72 ± 0.036. In the case of AGGUAGCAAUAUUACGCGGC, the “self-splicing fitness (ln)” value is, setting by setting: (30 °C) -4.05 ± 0.044; (37 °C) -2.93 ± 0.048. On to AGGUAGCAAUAUUACGGAAA, for which the “self-splicing fitness (ln)” value is, setting by setting: (30 °C) -2.92 ± 0.033; (37 °C) -1.96 ± 0.039. As to AGGUAGCAAUAUUACGGACC, the “self-splicing fitness (ln)” value was -0.613 ± 0.019 (30 °C) and -0.424 ± 0.037 (37 °C).

On to AGGUAGCAAUAUUACGGAUC, for which the “self-splicing fitness (ln)” value runs as follows: (30 °C) -1.721 ± 0.017; (37 °C) -0.787 ± 0.034. For AGGUAGCAAUAUUACGGCAG, the “self-splicing fitness (ln)” value is -1.25 ± 0.015 (30 °C) and -0.539 ± 0.033 (37 °C). Consider AGGUAGCAAUAUUACGGCGA, for which the “self-splicing fitness (ln)” value runs as follows: (30 °C) -0.281 ± 0.015; (37 °C) -0.0476 ± 0.033.

With AGGUAGCAAUAUUACGGGAC, the “self-splicing fitness (ln)” value by setting is: (30 °C) -3.462 ± 0.028; (37 °C) -2.15 ± 0.039.

On to AGGUAGCAAUAUUACGGUGU, for which the “self-splicing fitness (ln)” value was -2.356 ± 0.015 (30 °C) and -1.01 ± 0.033 (37 °C).

As for AGGUAGCAAUAUUACGGUUG, the “self-splicing fitness (ln)” value runs as follows: (30 °C) -3.675 ± 0.026; (37 °C) -2.4 ± 0.039. For the sequence AGGUAGCAAUAUUACGUACC, the “self-splicing fitness (ln)” value reads like this: (30 °C) -1.99 ± 0.028; (37 °C) -1.14 ± 0.042. The matching figures for AGGUAGCAAUAUUACGUAUC: -3.25 ± 0.025 and -2.07 ± 0.038. Consider AGGUAGCAAUAUUACGUCGU, for which the “self-splicing fitness (ln)” value was -1.761 ± 0.015 (30 °C) and -0.841 ± 0.034 (37 °C). Consider AGGUAGCAAUAUUACGUCUC, for which the “self-splicing fitness (ln)” value reads like this: (30 °C) -3.938 ± 0.036; (37 °C) -2.38 ± 0.047. For AGGUAGCAAUAUUACGUCUU, the “self-splicing fitness (ln)” value by setting is: (30 °C) -0.915 ± 0.014; (37 °C) -0.371 ± 0.033. On to AGGUAGCAAUAUUACGUGCA, for which the “self-splicing fitness (ln)” value is -0.829 ± 0.014 (30 °C) and -0.279 ± 0.033 (37 °C). In the case of AGUAAGCAAUAUUACGAAAU, the “self-splicing fitness (ln)” value by setting is: (30 °C) -3.49 ± 0.21; (37 °C) -2.18 ± 0.17. For AGUAAGCAAUAUUACGACCA, the “self-splicing fitness (ln)” value is -0.203 ± 0.12 (30 °C) and 0.184 ± 0.21 (37 °C).

For AGUAAGCAAUAUUACGACUA, the “self-splicing fitness (ln)” value runs as follows: (30 °C) -0.283 ± 0.13; (37 °C) -0.43 ± 0.13. Take AGUAAGCAAUAUUACGACUU: the “self-splicing fitness (ln)” value by setting is: (30 °C) -0.394 ± 0.068; (37 °C) -0.58 ± 0.097.
